Measured values from IntAct's records for PubMed 17159996.

B1: Tyrosine-protein phosphatase non-receptor type 1 (Homo sapiens), P18031 (parent)
chain: MEMEKEFEQIDKSGSWAAIYQDIRHEASDFPCRVAKLPKNKNRNRYRDVSPFDHSRIKLHQEDNDYINASLIKMEEAQRSYILTQGPLPNTCGHFWEMVWEQKSRGVVMLNRVMEKGSLKCAQYWPQKEEKEMIFEDTNLKLTLISEDIKSYYTVRQLELENLTTQETREILHFHYTTWPDFGVPESPASFLNFLFKVRESGSLSPEHGPVVVHCSAGIGRSGTFCLADTCLLLMDKRKDPSSVDIKKVLLEMRKFRMGLIQTADQLRFSYLAVIEGAKFIMGDSSVQDQWKELSHEDLEPPPEHIPPPPRPPKRILEPHNGKCREFFPNHQWVKEETQEDKDCPIKEEKGSPLNAAPYGIESMSQDTEVRSRVVGGSLRGAQAASPAKGEPSLPEKDEDHALSYWKPFLVNMCVATVLTAGAYLCYRFLFNSNT

Variants of: B1
Conditions: with insr_human INSR

effect of a mutation on the interaction	Variant
decreasing interaction	K73R;K335R;K347R;K389R
